Sequences and labels used below:
B1: S100A4 (wild-type, full-length, human) (natural protein)
chain: not shown
notes: Dimer; also called wild-type S100A4; Ca^2+-S100A4; source: E. coli BL21(DE3)*, purified (ammonium sulfate, Phenyl-Sepharose, Q XL anion exchange); 15N-labelled from M9 medium for NMR

Data set [1] concerns the molecule itself. Put plainly: AUC; sedimentation equilibrium, 22°C, interference optics; 20 mM Tris pH 7.5, 150 mM KCl, 0.5 mM CaCl2, 1 mM TCEP; MIIA^1851-1960 alone and mixed with S100A4 at 0.5:1 and 1:1 (dimer:dimer); 12,000, 20,000 and 28,000 rpm.
In data set [2] the target is B1. The description is as above. The following applies: both partners purified.
Data set [3] has as its target B1. Put plainly: AUC; sedimentation velocity, 22°C, 53,000 rpm; 20 mM Tris pH 7.5, 150 mM KCl, 0.5 mM CaCl2, 1 mM TCEP; each protein alone and MIIA^1851-1960 dimer:S100A4 dimer at 0.5:1, 1:1, 1.5:1. As to conditions: both partners purified.
For data set [4], the target named is B1. The data set can be described thus: fluorescence polarisation; competition anisotropy; 50 nM FITC-MIIA^1904-1927, 0.3 μM S100A4 dimer, 0-10 μM MIIA^1851-1960 dimer; 22°C; 20 mM Tris pH 7.5, 150 mM KCl, 1 mM DTT, 0.5 mM CaCl2, 0.5 mg/ml BSA. As to conditions: both partners purified.
The target of data set [5] is T1, S100A4Δ8C (S100A4 with the C-terminal eight amino acids deleted) (human, UniProt P26447 1-93).
T1 construct: S100A4, human, codon-optimized, untagged, in pET11b; deletion of the C-terminal eight amino acids (residues 94-101 absent); Dimer; also called Ca^2+-S100A4Δ8C; apo-S100A4Δ8C; source: E. coli BL21(DE3)*, purified (ammonium sulfate, Phenyl-Sepharose, Q XL anion exchange; Superdex 75 for crystallization)
The data set can be described thus: fluorescence polarisation; direct anisotropy titration; 50 nM FITC-MIIA^1904-1927, 0-30 μM S100A4Δ8C dimer; 22°C; 20 mM Tris pH 7.5, 150 mM KCl, 1 mM DTT, 0.5 mM CaCl2, 0.5 mg/ml BSA; single site saturation fit. The following applies: both partners purified.

This is an account of results in paper PMC3924328, “Structure of the S100A4/myosin-IIA complex” (BMC Structural Biology, 2013).

The star is where a group is joined. FITC = O=C1OC2(c3ccc(O)cc3Oc3cc(O)ccc32)c2ccc(NC(=S)*)cc21; Ahx = NCCCCCC(=O)O

T1 sequence (P26447 1-93, stated change not applied): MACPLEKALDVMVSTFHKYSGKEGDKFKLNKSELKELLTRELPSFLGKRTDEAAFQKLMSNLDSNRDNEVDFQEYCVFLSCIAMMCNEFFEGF

In the case of B1, in data set [1], the binding result is “binds”.

B2: MIIA^1851-1960 (C-terminal fragment of the human myosin-IIA heavy chain) (domain or fragment, UniProt P35579 1851-1960, looked up)
chain: VDDERRNAEQYKDQADKASTRLKQLKRQLEEAEEEAQRANASRRKLQRELEDATETADAMNREVSSLKNKLRRGDLPFVVPRRMARKGAGDGSDEEVDGKADGAEAKPAE
notes: about 75 residues of the coiled-coil and the entire C-terminal tailpiece; A dimer when alone (sedimentation equilibrium); Printed monomer mass 12,397.5 Da; source: E. coli BL21(DE3)*, purified (High Q Sepharose, hydroxyapatite, Sephacryl S200)
The term stoichiometry N denotes a count of units in the complex or per binding partner. By IC50 is commonly meant the concentration needed to halve the response being measured. The low end stands for inhibition by little substance, the high end for a need for much substance. Take B2: the “stoichiometry N” value in data set [2] was 1 MIIA^1851-1960 polypeptide chain per S100A4 dimer; in data set [1], 2; in data set [3] it was 1 MIIA^1851-1960 polypeptide per S100A4 dimer. In addition, the half-maximal inhibitory concentration (IC50) in data set [4] worked out at 21.2 nM.

B3: FITC-MIIA^1904-1927 peptide (peptide)
peptide: {FITC-Ahx}-TETADAMNREVSSLKNKLRRGDLP-NH2
SMILES: CSCC[C@H](NC(=O)[C@H](C)NC(=O)[C@H](CC(=O)O)NC(=O)[C@H](C)NC(=O)[C@@H](NC(=O)[C@H](CCC(=O)O)NC(=O)[C@@H](NC(=O)CCCCCNC(=S)Nc1ccc2c(c1)C(=O)OC21c2ccc(O)cc2Oc2cc(O)ccc21)[C@@H](C)O)[C@@H](C)O)C(=O)N[C@@H](CC(N)=O)C(=O)N[C@@H](CCCNC(=N)N)C(=O)N[C@@H](CCC(=O)O)C(=O)N[C@H](C(=O)N[C@@H](CO)C(=O)N[C@@H](CO)C(=O)N[C@@H](CC(C)C)C(=O)N[C@@H](CCCCN)C(=O)N[C@@H](CC(N)=O)C(=O)N[C@@H](CCCCN)C(=O)N[C@@H](CC(C)C)C(=O)N[C@@H](CCCNC(=N)N)C(=O)N[C@@H](CCCNC(=N)N)C(=O)NCC(=O)N[C@@H](CC(=O)O)C(=O)N[C@@H](CC(C)C)C(=O)N1CCC[C@H]1C(N)=O)C(C)C
notes: source: synthetic peptide (Bio-Synthesis Inc.)
As usually defined, the Kd is the constant that tells how readily two partners part at equilibrium. A lower Kd goes with tighter binding. With B3, the Kd in data set [5] is 510 ± 50 nM.
